Laboratory results as given in patent US20230406909A1 (ROCHE DIAGNOSTICS OPERATIONS, published 2023).
Like-named read-outs stand apart in the source and are kept apart here.

Legend:
[1] = target: T1, SlyD-SlyD-tagged nucleocapsid full-length protein (EcSlyD-EcSlyD-CoV-2-N(1-419)) (SARS-CoV-2); assay: SPR (Biacore), captured antibody, NCP analyte, Langmuir 1:1 fit
T1 construct: also called SlyD-SlyD-N protein; N protein

[2] = target: T1, SlyD-SlyD-tagged nucleocapsid …
[3] = target: T1, SlyD-SlyD-tagged nucleocapsid …; remark: listed apart in the source

B1: Antibody 1G9 (antibody, V domains shown)
VH: SQSVEESGGRLVTPGTPLTLTCTVSGFSLSTYAVNWVRQAPGKGLEWIGVIDGSGSTYYANWAKGRFTISKASTTVDLKITSPTTEDTATYFCARGAGTDNFGNLNLWGPGTLVTVSS
VL: DVVMTQTPASVEVAVGGTVTIKCQASESISSWLAWYQQKPGQPPKLLIYRASTLASGVPSRFKGSGSGTEYTLTISGVECADAATYYCQQDYSTSNIDNTFGGGTEVVVK
notes: also called clone 1G9
[1]
  MR (molar ratio): 1.2
  koff: 0.00024 s⁻¹
  kon: 200000 M⁻¹ s⁻¹
  t1/2 diss: 0.8 h
[2]
  MR (molar ratio): 1.2
  koff: 0.00024 s⁻¹
  kon: 200000 M⁻¹ s⁻¹
  t1/2 diss: 0.8 h
[3]
  Kd: 1.2 nM

B2: Antibody 5B6 (antibody, V domains shown)
VH: SQSVEESGGRLVTPGTPLTLTCTASGFSLSSYYMSWVRQAPGKGLEWIGVMTAGGSTFYASWAKGRFTISKTSTTVDLKITSPTTEDTATYFCARSIDTNYGSSIWGPGTLVTVSL
VL: DVVMTQTPASMSEPVGGTVTIKCQASEDIYTYLSWYQQQSGQPPKVLIYAASNLASGVSSRFKGSRSGTEYTLTISDLECADAATYYCQGDYYGSNYGLGTFGGGTEVVVK
notes: also called clone 5B6
[1]
  MR (molar ratio): 1.7
  koff: 0.00012 s⁻¹
  kon: 180000 M⁻¹ s⁻¹
  t1/2 diss: 1.55 h
[2]
  MR (molar ratio): 1.7
  koff: 0.00012 s⁻¹
  kon: 180000 M⁻¹ s⁻¹
  t1/2 diss: 1.55 h
[3]
  Kd: 0.7 nM

B3: Antibody 1.1.32 (antibody, V domains shown)
VH: EVQLQQSGPELVKPGASVKMSCKASGYTFTTYVMHWVKQKPGQGLEWIGYSDPYNGDSKDNENFKGKATLTSDKSSSTVYMELSSLTSEDSAVYYCARGFGNYLFYFDYWGQGTTLTVSS
VL: DIQMTQTTSSLSASLGDRVTISCSASQDIRDYLNWYQQKPDGTVKLLIYYTSNLHSGVPSRFSGSGSGTDYSLTISNLEPEDIATYFCQQYSKLPYTFGGGTKLEIK
notes: also called M-1.1.32; clone 1.1.32
[1]
  Kd: 0.059 nM
  MR (molar ratio): 0.9
  kon: 340000 M⁻¹ s⁻¹
  t1/2 diss: 9.65 h
[2]
  Kd: 0.059 nM
  MR (molar ratio): 0.9
  kon: 340000 M⁻¹ s⁻¹
  t1/2 diss: 9.65 h
[3]
  Kd: 0.06 nM
  koff: 2e-05 s⁻¹
